± gives the uncertainty stated by the source.
Test: self-splicing fitness, log relative to wild type (ln ratio); higher = more splicing; Tetrahymena group I intron in knt gene, E. coli kanamycin selection, DiMSum; sequences stand for … in CUCUCU…GGAGGGAAAAGUUAUCAGGCAUGCACCUGGUAGCUAGUCUUUAAACCAAUAGAUUGCAUCGGUUUAAAAGGCAAGACCGUCAAAUUGCGGGAAAGGGGUCAACAGCCGUUCAGUACCAAGUCUCAGGGGAAACUUUGAGAUGGCCUUGCAAAGGGUAUGGUAAUAAGCUGACGGACAUGGUCCUAACCACGCAGCCAAGUCCUAAGUCAACAGAUCUUCUGUUGAUAUGGAUGCAGUUCACAGACUAAAUGUCGGUCGGGGAAGAUGUAUUCUUCUCAUAAGAUAUAGUCGGACCUCUCCUUAAUGGGAGCUAGCGGAUGAAGUGAUGCAACACUGGAGCCGCUGGGAACUAAUUUGUAUGCGAAAGUAUAUUGAUUAGUUUUGGAGUACUCGUGGUCG
In short: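 Six replicate transformations of E. coli BL21(DE3) with a pET-22b(+) library were grown overnight at 37°C or 30°C. The library randomised all eight P1ex-region intron nucleotides, the intron lying in the knt kanamycin-resistance gene, and plates were LB agar with or without 25 μg/mL kanamycin plus 100 μg/mL carbenicillin, 50 μM IPTG and 0.2% rhamnose. Pooled colonies were amplicon-sequenced on an Illumina HiSeq 2500, and fitness is the DiMSum error-weighted combination of wild-type-normalised replicate fold changes, kanamycin versus none.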

Sequence | self-splicing fitness (ln) (30 °C) | self-splicing fitness (ln) (37 °C)
CCUUAGCAAUAUUACGGUAA | -2.78 ± 0.27 | -2.59 ± 0.35
ACUUAGCAAUAUUACGCAUG | -1.76 ± 0.085 | -0.581 ± 0.11
GACAAGCAAUAUUACGGGAG | -3.18 ± 0.11 | -1.52 ± 0.1
GAGUAGCAAUAUUACGGCAC | -0.661 ± 0.2 | -0.256 ± 0.21
GGGUAGCAAUAUUACGUCGU | -0.541 ± 0.086 | 0.73 ± 0.12
AAUAAGCAAUAUUACGAUAA | -1.9 ± 0.19 | -1.03 ± 0.18
AAUAAGCAAUAUUACGGAUA | -2.35 ± 0.14 | -1.68 ± 0.15
CACCAGCAAUAUUACGUGUG | -4.45 ± 0.17 | -3.63 ± 0.19
GGGUAGCAAUAUUACGAGUC | -3.63 ± 0.26 | -0.588 ± 0.17
CGUCAGCAAUAUUACGCCAU | -3.87 ± 0.29 | -2.81 ± 0.3
GAGCAGCAAUAUUACGGCGC | -0.751 ± 0.12 | 0.209 ± 0.17
AGGUAGCAAUAUUACGAUGG | -3.633 ± 0.029 | -2.57 ± 0.042
ACUUAGCAAUAUUACGAAAC | -3.64 ± 0.32 | -1.65 ± 0.24
CCGUAGCAAUAUUACGAUAA | -4.17 ± 0.39 | -1.99 ± 0.28
UUUAAGCAAUAUUACGUUUA | -2.69 ± 0.17 | -2.1 ± 0.11
UCCGAGCAAUAUUACGUGUG | -3.13 ± 0.11 | -0.996 ± 0.088
UGAUAGCAAUAUUACGUCAG | -1.84 ± 0.1 | -1.03 ± 0.12
GCUAAGCAAUAUUACGAAAU | -1.64 ± 0.11 | -0.218 ± 0.1
AAGAAGCAAUAUUACGGCGA | -0.584 ± 0.071 | -0.285 ± 0.088
UAAGAGCAAUAUUACGAACU | -2.49 ± 0.47 | –
GAGAAGCAAUAUUACGCCUA | -0.659 ± 0.15 | -1.03 ± 0.14
UUGCAGCAAUAUUACGGCUG | -3.43 ± 0.3 | -2.59 ± 0.24
CUAAAGCAAUAUUACGGAGG | -1.82 ± 0.1 | 0.0636 ± 0.12
UUUAAGCAAUAUUACGCUAU | -2.94 ± 0.27 | -0.849 ± 0.21
AGUUAGCAAUAUUACGCAAG | -2.63 ± 0.12 | -1.24 ± 0.13
CUAGAGCAAUAUUACGCUGU | -3.92 ± 0.37 | -2.69 ± 0.36

Sequence | self-splicing fitness (ln) (30 °C) | self-splicing fitness (ln) (37 °C)
CGCCAGCAAUAUUACGCCAA | -1.59 ± 0.23 | -2.02 ± 0.46
UGGGAGCAAUAUUACGCUUG | -1.62 ± 0.23 | 0.249 ± 0.23
GGGUAGCAAUAUUACGACAC | -0.676 ± 0.33 | -0.155 ± 0.35
AUUGAGCAAUAUUACGGAUA | -2.15 ± 0.28 | -1.57 ± 0.25
UUACAGCAAUAUUACGCGGA | -1.6 ± 0.12 | -0.823 ± 0.095
UGCCAGCAAUAUUACGUCAG | -2.49 ± 0.11 | -1.53 ± 0.14
ACGAAGCAAUAUUACGCAGU | -3.29 ± 0.17 | -2.5 ± 0.2
CGGCAGCAAUAUUACGCGGA | – | -2.7 ± 0.3
AAGAAGCAAUAUUACGGUCU | -0.564 ± 0.066 | -0.233 ± 0.1
CGAUAGCAAUAUUACGGCAC | -2.47 ± 0.33 | -1.49 ± 0.31
AAUCAGCAAUAUUACGGGAG | -1.48 ± 0.054 | -0.88 ± 0.068
CACAAGCAAUAUUACGAUUU | -4.17 ± 0.18 | -2.56 ± 0.15
CUGUAGCAAUAUUACGGAUG | -3.23 ± 0.27 | -0.812 ± 0.18
GUGUAGCAAUAUUACGAUCU | -1.04 ± 0.1 | 0.329 ± 0.11
CGUAAGCAAUAUUACGUCAC | – | -2.59 ± 0.44
AGCCAGCAAUAUUACGCGCG | -1.15 ± 0.075 | -0.281 ± 0.076
GAAAAGCAAUAUUACGAAGC | -3.19 ± 0.22 | -2.65 ± 0.28
AUUAAGCAAUAUUACGCAAG | -1.32 ± 0.14 | -1.27 ± 0.16
UGAUAGCAAUAUUACGGAUU | -2.78 ± 0.23 | -0.278 ± 0.19
UACUAGCAAUAUUACGCGGU | -3.43 ± 0.47 | -2.52 ± 0.33
CCUUAGCAAUAUUACGGUCU | -3.95 ± 0.25 | -3.77 ± 0.46
CACCAGCAAUAUUACGUAAC | -2.87 ± 0.13 | -0.914 ± 0.14
CCCCAGCAAUAUUACGGCUU | -3.23 ± 0.21 | -2.25 ± 0.23
AUUAAGCAAUAUUACGCAGC | -3.06 ± 0.22 | -2.72 ± 0.39
GGAUAGCAAUAUUACGUGAC | -2.63 ± 0.35 | -1.46 ± 0.26
GGACAGCAAUAUUACGGGUG | -2.51 ± 0.097 | -1.64 ± 0.1

Sequence | self-splicing fitness (ln) (30 °C) | self-splicing fitness (ln) (37 °C)
UGUGAGCAAUAUUACGCAAU | -4.42 ± 0.42 | -2.73 ± 0.31
GAUUAGCAAUAUUACGGUAG | -2.5 ± 0.15 | -1.21 ± 0.12
UACCAGCAAUAUUACGACAA | -0.483 ± 0.099 | -0.494 ± 0.09
UCAUAGCAAUAUUACGAUUC | -2.39 ± 0.18 | -2.6 ± 0.33
CUUCAGCAAUAUUACGGAAG | -4.18 ± 0.28 | -2.4 ± 0.2
UCGUAGCAAUAUUACGGAGU | -2.81 ± 0.24 | –
UAGGAGCAAUAUUACGAUGA | -2.75 ± 0.26 | -1.53 ± 0.21
GAGAAGCAAUAUUACGUACA | -0.535 ± 0.066 | -0.692 ± 0.077
ACCGAGCAAUAUUACGACUU | -1.12 ± 0.087 | -0.353 ± 0.11
AGGAAGCAAUAUUACGACUU | 0.00163 ± 0.064 | -0.239 ± 0.084
AAACAGCAAUAUUACGAAUA | -2.67 ± 0.14 | -1.1 ± 0.084
CAAGAGCAAUAUUACGAAGU | -3.86 ± 0.34 | -2.3 ± 0.33
CGCGAGCAAUAUUACGUUCU | -3.71 ± 0.28 | -2.76 ± 0.38
GCCAAGCAAUAUUACGUAUC | -1.66 ± 0.066 | -0.646 ± 0.082
AUGCAGCAAUAUUACGCUUC | -4.78 ± 0.34 | -3.07 ± 0.34
CGCCAGCAAUAUUACGUGCU | -3.27 ± 0.2 | -3.23 ± 0.33
CGGCAGCAAUAUUACGCCCG | -2.32 ± 0.47 | –
CGCAAGCAAUAUUACGCUUG | -2.74 ± 0.2 | -1.87 ± 0.21
CCGAAGCAAUAUUACGGACA | – | -1.57 ± 0.2
CAGAAGCAAUAUUACGGUUU | -2.93 ± 0.093 | -2.83 ± 0.12
GGAGAGCAAUAUUACGGAGU | – | -2.68 ± 0.31
UGCCAGCAAUAUUACGAGUA | -1.49 ± 0.1 | 0.112 ± 0.11
CGUGAGCAAUAUUACGUCCU | – | -1.64 ± 0.32
GCCCAGCAAUAUUACGAUUU | -1.07 ± 0.076 | -0.735 ± 0.1
AAAUAGCAAUAUUACGACGG | -0.995 ± 0.1 | -0.783 ± 0.16
AUCGAGCAAUAUUACGUGGU | -3.23 ± 0.15 | -2.72 ± 0.14

— the supplement of paper PMC7877785
